In article PMC9556597 one finds stoichiometry N data, which are given here for one substance.

One may read the stoichiometry N as the number of molecules, sites or subunits per partner or assembly.

The target of this experiment is AV-1980R recombinant protein (3xTau2-18-MultiTEP) (human) (UniProt P10636). The experiment can be described thus: AUC; protein in 3.2 M urea.

For “AV-1980R recombinant protein (3xTau2-18-MultiTEP) (from UniProt P10636 2-18; P10636 2-18; P10636 2-18)”, the stoichiometry N is 4.
